Test [1] addresses T1, nLuc:cLyn.
T1 construct: Expressed in HEK293T cells from pcDNA3; also called Myc:gsg:nLuc:gs10:cLyn; cSplit of Lyn CISPA sensor
The test is described as follows: split firefly luciferase complementation in HEK293T cells, dasatinib dose response (FIG. 3A).
Description: (§1) Cell cultures of HEK293T cells were grown at 37° C. and 5% CO₂. For cultivation, DMEM medium with 10% FBS, containing all the necessary nutrients and growth factors was used. When the cell population reached a sufficient density, the cells were transferred to a new flask and/or diluted. For use in experiments, the number of cells was determined by the Countess automated cell counter (Invitrogen). A 96-well microtiter plate, suitable for growing cell cultures, was inoculated with 2*10⁴ cells per well 24 hours prior to transfection. Inoculated plates were incubated at 37° C. and 5% CO₂. […] Twelve hours after transfection, the cells were stimulated by removing the media and replacing it with media containing selected ligands. Cells were stimulated for 24 hours.
(§2) Two days after transfection, the cells were harvested and lysed with 25 μl of 1× passive lysis buffer (Promega). Firefly luciferase and Renilla luciferase expression were measured using a dual luciferase assay (Promega) and an Orion II microplate reader (Berthold Technologies). […] Relative luciferase activity (RLU) was calculated by normalizing each sample's firefly luciferase activity to the constitutive Renilla luciferase activity determined within the same sample.
The plasmids encoding for designed CISPA sensor were transiently co-transfected into HEK293T cell line. […]

For test [2], the target named is T2, nLuc:cTRβ.
T2 construct: also called Myc:gsg:nLuc:gs10:cTRβ; cSplit of TRβ CISPA sensor
T2 chain: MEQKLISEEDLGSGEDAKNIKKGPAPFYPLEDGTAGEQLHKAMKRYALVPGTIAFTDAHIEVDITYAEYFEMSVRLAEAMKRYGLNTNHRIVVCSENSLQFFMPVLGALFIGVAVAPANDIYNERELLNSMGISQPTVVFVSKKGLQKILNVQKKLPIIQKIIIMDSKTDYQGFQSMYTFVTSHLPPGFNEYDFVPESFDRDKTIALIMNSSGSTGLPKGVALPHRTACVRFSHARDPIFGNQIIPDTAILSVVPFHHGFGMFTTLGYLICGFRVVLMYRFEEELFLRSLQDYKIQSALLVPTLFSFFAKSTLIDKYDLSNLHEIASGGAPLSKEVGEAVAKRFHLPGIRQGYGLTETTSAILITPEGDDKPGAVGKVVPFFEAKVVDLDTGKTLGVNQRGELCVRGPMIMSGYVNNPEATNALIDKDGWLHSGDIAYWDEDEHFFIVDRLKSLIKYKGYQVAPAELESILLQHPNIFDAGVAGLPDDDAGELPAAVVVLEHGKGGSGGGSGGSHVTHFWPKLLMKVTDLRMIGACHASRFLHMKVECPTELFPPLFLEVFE
Briefly: split firefly luciferase complementation in HEK293T cells, ligand dose response (FIG. 2D).

The target in test [3] is T3, nLuc:cPPARγ.
T3 construct: Expressed in HEK293T cells from pcDNA3; also called Myc:gsg:nLuc:gs10:cPPARγ; cSplit of PPARγ CISPA sensor
T3 chain: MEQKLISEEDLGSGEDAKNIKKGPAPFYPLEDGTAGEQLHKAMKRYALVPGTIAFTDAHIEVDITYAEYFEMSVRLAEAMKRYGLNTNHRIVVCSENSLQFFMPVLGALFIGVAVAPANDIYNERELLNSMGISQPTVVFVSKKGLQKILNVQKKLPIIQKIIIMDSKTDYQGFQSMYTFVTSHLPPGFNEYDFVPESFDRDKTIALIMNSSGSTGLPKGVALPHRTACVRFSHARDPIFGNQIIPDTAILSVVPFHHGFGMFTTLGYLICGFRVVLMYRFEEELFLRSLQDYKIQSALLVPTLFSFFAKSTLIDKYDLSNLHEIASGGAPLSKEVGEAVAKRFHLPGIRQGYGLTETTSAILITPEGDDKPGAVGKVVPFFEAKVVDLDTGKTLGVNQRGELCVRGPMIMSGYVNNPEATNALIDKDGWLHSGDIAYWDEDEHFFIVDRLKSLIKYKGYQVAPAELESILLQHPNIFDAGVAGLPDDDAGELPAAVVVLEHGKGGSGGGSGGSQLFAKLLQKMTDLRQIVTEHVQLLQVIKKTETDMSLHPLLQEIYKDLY
Briefly: split firefly luciferase complementation in HEK293T cells, ligand dose response (FIG. 2E).
Description: (§3) 50 ng of each plasmid encoding CISPA sensor pair was transiently co-transfected in HEK293T cells which were 24 h post-transfection stimulated with the indicated ligands. […] Replicates represent HEK293T cell cultures, individually transfected with the same mixture of plasmids. The values represent the mean and standard deviation of replicates within two to three independent experiments (n=4). Data was plotted as a standard dose response curve.
(§4) The fusion constructs were simultaneously expressed in the HEK293T cell line. […] Following this dimerization, the split reporter fragments (nLuc and cLuc) are brought into the proximity, leading to their reconstitution and measurable output signal (emitted light). The plasmids encoding for the CISPA sensors based on split LBDs were transiently transfected into the HEK293T cell line. […]
as §2

Test [4] deals with T4, nLuc:cERβ.
T4 construct: Expressed in HEK293T cells from pcDNA3; also called Myc:gsg:nLuc:gs10:cERβ; cSplit of ERβ CISPA sensor
T4 chain: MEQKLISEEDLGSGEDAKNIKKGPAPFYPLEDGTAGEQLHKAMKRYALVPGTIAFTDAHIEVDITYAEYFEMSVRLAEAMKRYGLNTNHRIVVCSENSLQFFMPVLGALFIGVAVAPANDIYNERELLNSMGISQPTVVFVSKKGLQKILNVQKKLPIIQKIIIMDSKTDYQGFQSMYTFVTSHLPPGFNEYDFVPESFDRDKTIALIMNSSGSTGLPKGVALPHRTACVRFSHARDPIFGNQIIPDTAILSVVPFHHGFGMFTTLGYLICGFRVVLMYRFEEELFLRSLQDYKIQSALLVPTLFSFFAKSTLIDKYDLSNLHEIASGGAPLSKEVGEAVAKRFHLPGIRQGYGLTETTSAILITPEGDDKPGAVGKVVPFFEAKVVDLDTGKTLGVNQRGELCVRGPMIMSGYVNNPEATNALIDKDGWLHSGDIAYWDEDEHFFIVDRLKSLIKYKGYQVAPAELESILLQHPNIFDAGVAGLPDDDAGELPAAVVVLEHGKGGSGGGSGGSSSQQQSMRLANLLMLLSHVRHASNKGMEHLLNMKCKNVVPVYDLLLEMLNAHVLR
Briefly: split firefly luciferase complementation in HEK293T cells, ligand dose response (FIG. 2C).
Description: as §3, §4, §2

Test [5] has as its target T5, nLuc:cGR2.
T5 construct: Expressed in HEK293T cells from pcDNA3; also called Myc:gsg:nLuc:gs10:cGR2; cSplit of GR2 CISPA sensor
T5 chain: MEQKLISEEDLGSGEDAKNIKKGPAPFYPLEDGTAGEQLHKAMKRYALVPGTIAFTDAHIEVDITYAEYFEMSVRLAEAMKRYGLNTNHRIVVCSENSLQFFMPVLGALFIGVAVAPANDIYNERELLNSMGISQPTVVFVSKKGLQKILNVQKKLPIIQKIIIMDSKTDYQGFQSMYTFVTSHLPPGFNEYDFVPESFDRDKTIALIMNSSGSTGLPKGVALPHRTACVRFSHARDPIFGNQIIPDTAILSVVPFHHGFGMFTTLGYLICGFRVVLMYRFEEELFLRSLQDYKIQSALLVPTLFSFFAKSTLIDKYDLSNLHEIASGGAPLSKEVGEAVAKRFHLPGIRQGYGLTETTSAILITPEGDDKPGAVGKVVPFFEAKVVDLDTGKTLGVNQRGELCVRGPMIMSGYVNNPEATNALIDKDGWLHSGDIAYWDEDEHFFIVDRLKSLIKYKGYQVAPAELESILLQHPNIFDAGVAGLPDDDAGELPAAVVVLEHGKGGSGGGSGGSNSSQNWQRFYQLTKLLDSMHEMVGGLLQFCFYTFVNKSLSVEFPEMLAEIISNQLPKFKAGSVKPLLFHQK
The test is described as follows: split firefly luciferase complementation in HEK293T cells; dimerization only with cognate ligand.
Description: as §3, §4, §2

In test [6] the target is T6, nLuc:cDHFR (human, UniProt P08659 2-491 = luciferase).
T6 construct: Expressed in HEK293T cells from pcDNA3; also called Myc:gsg:nLuc:gs10:cDHFR; cSplit of DHFR CISPA sensor
The test is described as follows: split firefly luciferase complementation in HEK293T cells, methotrexate or pralatrexate dose response (FIG. 3B).
Description: as §1, §2
The plasmids encoding for CISPA sensor was transiently co-transfected into HEK293T cell line. […]

B1: nLyn:cLuc (other)
chain: MAWEIPRESIKLVKRLGAGQFGEVWMGYYNGGSGGGSGGSTMTEKEIVDYVASQVTTAKKLRGGVVFVDEVPKGLTGKLDARKIREILIKAKKGGKIAVNSGSGYPYDVPDYA
notes: Expressed in HEK293T cells from pcDNA3; also called nLyn:gs10:cLuc:gsg:HA; nSplit of Lyn CISPA sensor
In the case of B1, in test [1], the binding result is “binds”.

B2: nTRβ:cLuc (other)
chain: MHMEELQKSIGHKPEPTDEEWELIKTVTEAHVATNAQGSHWKQKRKFLPEDIGQAPIVNAPEGGKVDLEAFSHFTKIITPAITRVVDFAKKLPMFCELPCEDQIILLKGCCMEIMSLRAAVRYDPESETLTLNGEMAVTRGQLKNGGLGVVSDAIFDLGMSLSSFNLDDTEVALLQAVLLMSSDRPGLACVERIEKYQDSFLLAFEHYINYRKHGGSGGGSGGSTMTEKEIVDYVASQVTTAKKLRGGVVFVDEVPKGLTGKLDARKIREILIKAKKGGKIAVNSGSGYPYDVPDYA
notes: also called nTRβ:gs10:cLuc:gsg:HA; nSplit of TRβ CISPA sensor
Consider B2, for which the binding result in test [2] was “binds”.

B3: nPPARγ:cLuc (other)
chain: MGSHMLNPESADLRALAKHLYDSYIKSFPLTKAKARAILTGKTTDKSPFVIYDMNSLMMGEDKIKFKHITPLQEQSKEVAIRIFQGCQFRSVEAVQEITEYAKSIPGFVNLDLNDQVTLLKYGVHEIIYTMLASLMNKDGVLISEGQGFMTREFLKSLRKPFGDFMEPKFEFAVKFNALELDDSDLAIFIAVIILSGDRPGLLNVKPIEDIQDNLLQALELQLKLNHPESSGGSGGGSGGSTMTEKEIVDYVASQVTTAKKLRGGVVFVDEVPKGLTGKLDARKIREILIKAKKGGKIAVNSGSGYPYDVPDYA
notes: Expressed in HEK293T cells from pcDNA3; also called nPPARγ:gs10:cLuc:gsg:HA; nSplit of PPARγ CISPA sensor
In the case of B3, in test [3], the binding result is “binds”.

B4: nERβ:cLuc (other)
chain: MDALSPEQLVLTLLEAEPPHVLISRPSAPFTEASMMMSLTKLADKELVHMISWAKKIPGFVELSLFDQVRLLESCWMEVLMMGLMWRSIDHPGKLIFAPDLVLDRDEGKCVEGILEIFDMLLATTSRFRELKLQHKEYLCVKAMILLNSSMYPLVTATQDADSSRKLAHLLNAVTDALVWVIAKSGIGGSGGGSGGSTMTEKEIVDYVASQVTTAKKLRGGVVFVDEVPKGLTGKLDARKIREILIKAKKGGKIAVNSGSGYPYDVPDYA
notes: Expressed in HEK293T cells from pcDNA3; also called nERβ:gs10:cLuc:gsg:HA; nSplit of ERβ CISPA sensor
As for B4, in test [4], the binding result was “binds”.

B5: nGR2:cLuc (other)
chain: MLISLLEVIEPEVLYSGYDSTLPDTSTRLMSTLNRLGGRQVVSAVKWAKALPGFRNLHLDDQMTLLQYSWMSLMAFSLGWRSYKQSNGNMLCFAPDLVINEERMQLPYMYDQCQQMLKISSEFVRLQVSYDEYLCMKVLLLLSTVPKDGLKSQAVFDEIRMTYIKELGKAIVKREGGGSGGGSGGSTMTEKEIVDYVASQVTTAKKLRGGVVFVDEVPKGLTGKLDARKIREILIKAKKGGKIAVNSGSGYPYDVPDYA
notes: Expressed in HEK293T cells from pcDNA3; also called nGR2:gs10:cLuc:gsg:HA; nSplit of GR2 CISPA sensor
As for B5, the binding result in test [5] is listed as “binds”.

B6: nDHFR:cLuc (other)
chain: MVGSLNCIVAVSQNMGIGKNGDLPWPPLRNEFRYFQRMTTTSSVEGKQNLVIMGKKTWFSIPEKNRPLKGRINLVLSRELKEPPQGAHFLSRSLDDALKLTEQPELANKVDMVWIVGGSSVYKEAMNHPGHLKLFVTRIMQDFESDTFFPEIDLEKYKLLPEYPGVLSDVQEEKGGSGGGSGGSTMTEKEIVDYVASQVTTAKKLRGGVVFVDEVPKGLTGKLDARKIREILIKAKKGGKIAVNSGSGYPYDVPDYA
notes: Expressed in HEK293T cells from pcDNA3; also called nDHFR:gs10:cLuc:gsg:HA; nSplit of DHFR CISPA sensor
In the case of B6, the binding result in test [6] is given as “binds”.

The values above are taken from patent US20250321223A1 (KEMIJSKI INSTITUT, published 2025).
